These results are taken from patent US20240036027A1.

In experiment [1] the target is OmpG^Q224-FLAG (Escherichia coli) (UniProt P76045). Nature of the experiment: single-channel current recording, 30 nM FG4R.
Experiment [2] deals with OmpG^L3-FLAG (Escherichia coli) (UniProt P76045). Put plainly: single-channel current recording, N=3 pores, n=9 binding events.
The target of experiment [3] is OmpG^Q224-FLAG (Escherichia coli) (UniProt P76045). Nature of the experiment: single-channel current recording, 30 nM antibody, 50 mV, 30 pA pores.

On to “Monoclonal mouse anti-FLAG antibody FG4R [RRID AB_1957945]”, for which the reduction of current flow in the bound state in experiment [1] worked out at 10%. In addition, the reduction in pore conductance in the bound state in experiment [2] is 5.02%. As for “FLAG tag monoclonal antibody OTI4C5 (OriGene Technologies)”, the reduction in current in the bound state in experiment [3] was found to be 20 pA.
